Data taken from patent US20220332804A1 (CSL INNOVATION, published 2022).
Changes are numbered by the printed parent chain.

Legend:
Test in all cases: SPR, KD relative to WT C2;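 note: biacore SPR at 37 °C, anti-C2 mAbs captured via immobilised goat anti-human IgG, C2 alanine or serine surface mutants as analytes, 1:1 model fitted, double-referenced sensograms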
human C2 S713A = target: T1, human C2 S713A (human, UniProt P06681 21-752)
T1 sequence: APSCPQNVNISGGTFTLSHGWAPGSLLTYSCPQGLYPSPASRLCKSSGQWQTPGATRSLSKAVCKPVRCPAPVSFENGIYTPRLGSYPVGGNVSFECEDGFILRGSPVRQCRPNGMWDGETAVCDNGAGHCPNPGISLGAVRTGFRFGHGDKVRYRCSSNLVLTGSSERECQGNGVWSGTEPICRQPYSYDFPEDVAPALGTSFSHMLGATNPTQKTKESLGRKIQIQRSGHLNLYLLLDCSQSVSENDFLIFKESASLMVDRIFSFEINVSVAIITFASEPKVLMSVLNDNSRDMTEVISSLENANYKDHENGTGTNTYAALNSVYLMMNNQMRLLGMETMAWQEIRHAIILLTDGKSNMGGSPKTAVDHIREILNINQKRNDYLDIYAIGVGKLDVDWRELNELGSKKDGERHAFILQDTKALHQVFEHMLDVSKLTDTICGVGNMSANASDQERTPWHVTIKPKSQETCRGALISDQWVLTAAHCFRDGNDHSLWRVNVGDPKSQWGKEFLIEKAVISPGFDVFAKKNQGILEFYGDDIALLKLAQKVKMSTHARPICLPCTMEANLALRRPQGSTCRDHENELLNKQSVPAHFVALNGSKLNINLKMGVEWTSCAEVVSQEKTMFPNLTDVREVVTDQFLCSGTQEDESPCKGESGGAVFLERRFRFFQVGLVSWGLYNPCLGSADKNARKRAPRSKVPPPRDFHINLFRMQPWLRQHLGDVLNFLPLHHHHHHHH

human C2 E450A = target: T2, human C2 E450A (human, UniProt P06681 21-752)
T2 sequence: T1 sequence with E430A, A693S

human C2 K531A = target: T3, human C2 K531A (human, UniProt P06681 21-752)
T3 sequence: T1 sequence with K511A, A693S

human C2 D561A = target: T4, human C2 D561A (human, UniProt P06681 21-752)
T4 sequence: T1 sequence with D541A, A693S

B1: RF16-226 (antibody, human IgG4 S228P, lambda)
heavy: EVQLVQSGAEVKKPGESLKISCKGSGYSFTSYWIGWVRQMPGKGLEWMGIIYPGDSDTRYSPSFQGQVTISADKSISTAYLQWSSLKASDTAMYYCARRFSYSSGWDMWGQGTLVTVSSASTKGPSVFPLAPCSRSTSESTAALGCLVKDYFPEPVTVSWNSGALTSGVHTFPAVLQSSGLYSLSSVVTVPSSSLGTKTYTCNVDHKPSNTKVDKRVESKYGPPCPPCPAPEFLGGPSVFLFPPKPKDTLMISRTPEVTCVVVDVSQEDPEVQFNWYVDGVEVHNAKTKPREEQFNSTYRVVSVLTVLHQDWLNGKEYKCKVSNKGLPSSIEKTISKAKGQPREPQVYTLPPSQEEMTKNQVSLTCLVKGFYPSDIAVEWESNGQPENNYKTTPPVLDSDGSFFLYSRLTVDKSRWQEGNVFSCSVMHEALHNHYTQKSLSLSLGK
light: SYELTQPPSVSVSPGQTARITCSGDALTSKYVAWYQQKSGLAPLLVIYEDTRRPSGIPAKFSGSSSGSVATLTISGAHGDDEADYYCYSTDASGHQRVFGGGTKLTVLSQPKAAPSVTLFPPSSEELQANKATLVCLISDFYPGAVTVAWKADGSPVKAGVETTKPSKQSNNKYAASSYLSLTPEQWKSHRSYSCQVTHEGSTVEKTVAPTECS
notes: pH-dependent anti-C2 antibody from a phage display library; also called WT
Human C2 S713A
  Fold diff: 2 fold
Human C2 E450A
  Fold diff: 0 fold
Human C2 K531A
  Fold diff: 1 fold
Human C2 D561A
  Fold diff: 10 fold
